Consider seven molecules from paper PMC7306444.

Some targets named below: NT-hFMRP (Homo sapiens, UniProt Q06787 218-632); GST-hFMRP KH1-KH2 (Homo sapiens, UniProt Q06787 216-425); GST-hFMRP KH2 (Homo sapiens, UniProt Q06787 281-425); GST-hFMRP KH0 (Homo sapiens, UniProt Q06787 126-201); GST-hFMRP KH1 (Homo sapiens, UniProt Q06787 216-280); GST-hFMRP KH0-KH1-KH2 (Homo sapiens, UniProt Q06787 126-425); GST-hFMRP RGG (Homo sapiens, UniProt Q06787 531-632); NT-hFMRP ΔKH1 (Homo sapiens, UniProt Q06787 281-632).

What all share (experiment): fluorescence anisotropy
(Polarisation of emitted light reports the rotation of a fluorescent probe.)

Consider CCCCCCCUGGACCCCCCU (ssRNA) [UGGA], for which the binding result with NT-hFMRP is “no binding”.
By Kd is commonly meant the concentration at which binding is half-saturated. High values mean weaker binding, low ones tighter binding. In turn, UGGACUUGGACUUGGACU (ssRNA, m6A at position 10) [UGGm6ACU] showed a Kd in the data set with NT-hFMRP of 1250 ± 610 nM.
For UGACGGACGGACGGACGU (structured_RNA) [(GACG)4], the binding result with GST-hFMRP KH1-KH2, in the data set with GST-hFMRP KH2, in the data set with GST-hFMRP KH0, in the data set with GST-hFMRP KH1, with GST-hFMRP KH0-KH1-KH2 and in the data set with GST-hFMRP RGG was “no binding” throughout. In addition, the binding result in the data set with NT-hFMRP was “no binding”.
Consider CCCCCCCACUUCCCCCCU (ssRNA) [ACUU], for which the binding result with NT-hFMRP is “no binding”.
As to GGGGGGGGGGGGGGGGGU (structured_RNA) [PolyG17], the Kd in the data set with NT-hFMRP ΔKH1 is 17 ± 3 nM; with GST-hFMRP RGG, 8.6 ± 1.2 nM; with NT-hFMRP, 14 ± 2 nM.
For UGGGGU (structured_RNA) [UG4U], the values for the Kd with NT-hFMRP ΔKH1, in the data set with GST-hFMRP RGG and in the data set with NT-hFMRP were 80 ± 7 nM, 210 ± 18 nM and 110 ± 16 nM, respectively.
Turning to UUGGAUGGAUGGAUGGAU (structured_RNA) [(UGGA)4], the binding result with GST-hFMRP KH1-KH2, with GST-hFMRP KH2, in the data set with GST-hFMRP KH0, with GST-hFMRP KH1 and in the data set with GST-hFMRP KH0-KH1-KH2 was “no binding” throughout. The Kd with NT-hFMRP ΔKH1 stood at 840 ± 39 nM; in the data set with NT-hFMRP it was 710 ± 50 nM.
